{"source": "paper PMC3094495", "molecules": {"B1": {"name": "bacteriophage λ Cro, P03040 1-66 (natural protein)", "chain": "MEQRITLKDYAMRFGQTKTAKDLGVYQSAINKAIHAGRKIFLTINADGSVYAEEVKPFPSNKKTTA"}}, "key": {"[1]": {"molecular_target": "N15 Cro (Escherichia phage N15) (UniProt P03040)", "settings": "cited from earlier work"}, "[2]": {"molecular_target": "bacteriophage N15 Cro (bacteriophage N15)", "test": "native MS"}, "[3]": {"molecular_target": "λ Cro (Escherichia phage lambda) (UniProt P03040)", "settings": "cited from earlier work"}, "[4]": {"molecular_target": "T1, bacteriophage λ Cro (bacteriophage λ), P03040", "T1 chain": "B1 chain", "test": "native MS", "settings": "remark: other sources report otherwise"}}}
{"molecule": "N15 Cro (from UniProt P03040)", "values": [{"measurement": "Kd", "setting": "[1]", "result": 5, "unit": "µM"}]}
{"molecule": "bacteriophage N15 Cro (natural protein)", "values": [{"measurement": "stoichiometry N", "setting": "[2]", "result": 2}]}
{"molecule": "λ Cro (from UniProt P03040)", "values": [{"measurement": "Kd", "setting": "[3]", "result": 3, "unit": "µM"}]}
{"molecule": "B1", "values": [{"measurement": "stoichiometry N", "setting": "[4]", "result": 2}]}
